ΔOD 350 nm plateau of 15 μM tubulin and ΔOD ratio (plateau with 8 μM compound divided by plateau of tubulin alone) data for one molecule are collected here from publication PMC549075.

This assay concerns the target Lamb brain tubulin (lamb).

B1: HIV-1 Tat protein, Oyi strain (natural protein)
chain: MEPVDPRLEPWKHPGSQPKTASNNCYCKRCCLHCQVCFTKKGLGISYGRKKRRQRRRAPQDSKTHQVSLSKQPASQPRGDPTGPKESKKKVERETETDPED
Turning to B1, the ΔOD 350 nm plateau of 15 μM tubulin at 37°C with 8 μM compound was 0.8 ΔOD 350 nm and the ΔOD ratio (plateau with 8 μM compound divided by plateau of tubulin alone) was found to be 2.63.
